From patent US9089613B2, “Drug activation system” (BANGOR UNIVERSITY, priority 2009, dated 2015) come the findings set out here.

The series in a line: Enzyme reactivity to prodrugs before and after attachment to colloidal gold (UV/Vis, NADH oxidation at 340 nm, hydroxylamine formation at 420 nm). The following applies: for Specific activity: CB1954 prodrug, excess NADH, 37° C., bound samples on 20 nm gold colloid at molar ratio 87:1 enzymes:gold; for Retained activity (%): compared to the same concentration of enzyme free in solution, CB1954, molar ratio 87:1 enzymes:gold. Type of series: biochemical. On the procedure: The ability of the different nitroreductases to metabolise the selected prodrugs is assessed as the conversion of NADH to NAD^+ by UV-vis spectra. The kinetic parameters of the purified enzymes are measured by UV-vis spectra before and after their attachment to gold particles based on their ability to use NADH or an alternative cofactor such as for example nicotinic acid riboside for the reduction of the prodrugs.
For these experiments, a 300 molar equivalents of enzyme were incubated with gold colloid, as this appeared to be the minimum amount of enzyme to cover the gold nanoparticle surface as determined by UV/Vis spectrometry, electrophoresis, and stability experiments. 3.206 nmol of the NfnB and cys-NfnB enzymes in ultra pure water were incubated with 1.5 ml 20 nm Naked Gold® (7.125×10^−3 μM) at a temperature of 4° C. overnight. As controls, the same treatment was carried out for NfnB and cys-NfnB in the absence of gold colloid. The next day the solutions were divided in half and each made up to a total volume of 970 μl using ultra pure water. To each sample, 20 μl of NADH (10 mM) were added and incubated at a temperature of 37° C. for 5 min. The absorbance spectra (750 nm-200 nm) were recorded every 1.5 min for 20 min upon the addition of 10 μl CB 1954 (10 mM) or 20 μl SN 23862 (5 mM) to the test sample, and an equivalent volume of dimethyl sulfoxide (DMSO) to the reference solution. The oxidation of NADH, measured as the decrease at 340 nm, was used as an indication of reactivity of the enzyme for the substrate. The reactivity experiments were done for enzyme: gold conjugate solutions and for enzymes free in solution.
The ability of both recombinant NfnB and cys-NfnB to activate the CB1954 prodrug, before and after attachment to the gold colloid were compared. The free enzyme is known to be active as a dimer in which each monomer is closely associated with a flavin mononucleotide (FMN) molecule, and has two substrate binding pockets as explained in Lovering et al. (Lovering A. L., Hyde E. I., Searle P. F. and White S. A., in Journal of Molecular Biology, 309: 203-213, 2001) or in Zenno et al. (Zenno S, Koike H, Tanokura M and Saigo' K, in Journal of Biochemistry, 120: 736-744, 1996). […]
The formation of hydroxylamine products was monitored at 420 nm using UV/Vis spectroscopy in the presence of enzyme and excess NADH as previously described. […]
It was observed that both the NADH and CB1954 substrates were consumed in the presence of recombinant NfnB, with the simultaneous production of the hydroxylamine product. The same experiment was performed for recombinant NfnB immobilised onto the gold colloid at a molar ratio of 87:1 enzymes to gold, to ensure that any activity measured was not due to excess enzyme free in solution. […]

B1: NfnB (unbound): his-tagged wildtype NfnB nitroreductase from Escherichia coli K12, free in solution (protein, UniProt P38489 1-217, looked up)
Oxygen-insensitive NAD(P)H …: MDIISVALKRHSTKAFDASKKLTPEQAEQIKTLLQYSPSSTNSQPWHFIVASTEEGKARVAKSAAGNYVFNERKMLDASHVVVFCAKTAMDDVWLKLVVDQEDADGRFATPEAKAANDKGRKFFADMHRKDLHDDAEWMAKQVYLNVGNFLLGVAALGLDAVPIEGFDAAILDAEFGLKEKGYTSLVVVPVGHHSVEDFNATLPKSRLPQNITLTEV
modifications: His tag
notes: his-tagged wildtype NfnB nitroreductase from Escherichia coli K12, free in solution
B1: the Specific activity worked out at 0.169 µmol/min/mg and the “Retained activity (%)” value was found to be 100%.

B2: NfnB (bound to gold): recombinant NfnB nitroreductase immobilised onto 20 nm gold colloid (conjugate, UniProt P38489 1-217, looked up)
Oxygen-insensitive NAD(P)H …: MDIISVALKRHSTKAFDASKKLTPEQAEQIKTLLQYSPSSTNSQPWHFIVASTEEGKARVAKSAAGNYVFNERKMLDASHVVVFCAKTAMDDVWLKLVVDQEDADGRFATPEAKAANDKGRKFFADMHRKDLHDDAEWMAKQVYLNVGNFLLGVAALGLDAVPIEGFDAAILDAEFGLKEKGYTSLVVVPVGHHSVEDFNATLPKSRLPQNITLTEV
modifications: immobilised on gold colloid
notes: recombinant NfnB nitroreductase immobilised onto 20 nm gold colloid
B2: the Specific activity is 0.168 µmol/min/mg and the “Retained activity (%)” value was 99.5%.
